To fix the notation:
B1: active His6-Caspase-9 (lacking CARD domain) (enzyme)
chain: HHHHHHVGALESLRGNADLAYILSMEPCGHCLIINNVNFCRESGLRTRTGSNIDCEKLRRRFSSLHFMVEVKGDLTAKKMVLALLELAQQDHGALDCCVVVILSHGCQASHLQFPGAVYGTDGCPVSVEKIVNIFNGTSCPSLGGKPKLFFIQACGGEQKDHGFEVASTSPEDESPGSNPEPDATPFQEGLRTFDQLDAISSLPTPSDIFVSYSTFPGFVSWRDPKSGSWYVETLDDIFEQWAHSEDLQSLLLRVANAVSVKGIYKQMPGCFNFLRKKLFFKTS
notes: also called active Caspase-9
B2: GST-CD40 (cytosolic domain) control protein (other, UniProt P25942 216-277, looked up, not shown: a dimerising Fc or GST)
chain: KKVAKKPTNKAPHPKQEPQEINFPDDLPGSNTAAPVQETLHGCQPVTQEDGKESRISVQERQ
notes: domain: cytosolic domain
B3: His6-pro-Caspase-9 (enzyme)
chain: HHHHHHMDEADRRLLRRCRLRLVEELQVDQLWDALLSRELFRPHMIEDIQRAGSGSRRDQARQLIIDLETRGSQALPLFISCLEDTGQDMLASFLRTNRQAAKLSKPTLENLTPVVLRPEIRKPEVLRPETPRPVDIGSGGFGDVGALESLRGNADLAYILSMEPCGHCLIINNVNFCRESGLRTRTGSNIDCEKLRRRFSSLHFMVEVKGDLTAKKMVLALLELAQQDHGALDCCVVVILSHGCQASHLQFPGAVYGTDGCPVSVEKIVNIFNGTSCPSLGGKPKLFFIQACGGEQKDHGFEVASTSPEDESPGSNPEPDATPFQEGLRTFDQLDAISSLPTPSDIFVSYSTFPGFVSWRDPKSGSWYVETLDDIFEQWAHSEDLQSLLLRVANAVSVKGIYKQMPGCFNFLRKKLFFKTS
notes: also called recombinant pro-Caspase-9
B4: His6-pro-Caspase-3 (enzyme)
chain: HHHHHHMENTENSVDSKSIKNLEPKIIHGSESMDSGISLDNSYKMDYPEMGLCIIINNKNFHKSTGMTSRSGTDVDAANLRETFRNLKYEVRNKNDLTREEIVELMRDVSKEDHSKRSSFVCVLLSHGEEGIIFGTNGPVDLKKITNFFRGDRCRSLTGKPKLFIIQACRGTELDCGIETDSGVDDDMACHKIPVEADFLYAYSTAPGYYSWRNSKDGSWFIQSLCAMLKQYADKLEFMHILTRVNRKVATEFESFSFDATFHAKKQIPCIVSMLTKELYFYH

Assay [1] concerns the target T1, GST-HBXIP (human, UniProt O43504 1-91). The assay is described as follows: GST pull-down, anti-Caspase-9 immunoblot.
The target in the assay “His6-pro-Caspase-9” is B3. In words: GST pull-down in the presence of Survivin, anti-Caspase-9 immunoblot.
Assay [2] concerns the target HBXIP/Survivin complex (GST-HBXIP with purified untagged Survivin) (human, UniProt O43504 1-91; O15392 1-142). The assay is described as follows: GST pull-down, anti-Caspase-3 immunoblot.
The target of assay [3] is T1, GST-HBXIP. In words: GST pull-down, anti-Caspase-3 immunoblot.

On to B1, for which the binding result with GST-HBXIP [1] was “no binding”.

For the molecule B2, the binding result with His6-pro-Caspase-9 was “no binding”.

B3: in the assay with GST-HBXIP [1], the binding result is listed as “no binding”.

On to B4, for which the binding result (in assay [2]; with GST-HBXIP [3]) was “no binding” in each case.

The record behind these values is patent US20040138119A1 (BURNHAM INSTITUTE, published 2004).
